The values below come from article PMC2954905, “Controlling Cellular P-TEFb Activity by the HIV-1 Transcriptional Transactivator Tat”.

For the series, the target named is HEXIM1 (UniProt O94992 1-359). The series can be described thus: EMSA; EMSA: 50 mM Tris-HCl pH 8.0, 100 mM NaCl, 14.4 mM 2-mercaptoethanol, 20 ng/ul E. coli tRNA, RT; ~2 fmol RNA; 4-5% native PAGE in 0.5x TBE, 2.5% glycerol. To be noted: protein: recombinant, hairpin. (Mobility shift assays separate free from complexed probe on a gel.)
Chain of HEXIM1 (O94992 whole entry): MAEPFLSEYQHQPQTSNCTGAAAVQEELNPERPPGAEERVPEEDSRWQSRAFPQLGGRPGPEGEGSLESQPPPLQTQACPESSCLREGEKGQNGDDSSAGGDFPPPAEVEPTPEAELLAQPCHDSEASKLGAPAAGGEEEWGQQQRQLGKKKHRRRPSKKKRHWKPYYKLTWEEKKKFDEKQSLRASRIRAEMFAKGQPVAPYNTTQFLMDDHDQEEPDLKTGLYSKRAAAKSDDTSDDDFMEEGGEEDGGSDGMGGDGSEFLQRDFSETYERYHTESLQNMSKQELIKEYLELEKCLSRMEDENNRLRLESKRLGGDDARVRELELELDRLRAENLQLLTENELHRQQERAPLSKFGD

B1: 5'HPdm+pm (in vitro) (structured_RNA)
RNA: GGAUGUGAGGGCCUAGACCGACCGACAUCUGUCACCCCAUUGAUCGCCAGGGUUGAUUCGGCUCUAGACCGACGCUAGGCGGGUGUCCCCUUCCUCCCUCACCGCUCCAUG
Regarding B1, the binding result (label: 32P internal) was “no binding”.

On to GGGCCACUGACCCCAUUGAUCGGAAGAUCUGGCUGGCUACAGUGGAUC (structured_RNA) [DHBS], for which, under “label: 32P, GGAA tetraloop”, the binding result is listed as “binds”.
